Assay results: patent publication CN113912710A (SURE BIOTECH HANGZHOU LTD, dated 2022)

Columns and labels:
[1] = biological target: T1, SARS-CoV Nucleocapsid Protein(His Tag), 货号40143-V08B (SARS-CoV, UniProt P59595 1-422); assay: ELISA, cross-reaction test
T1 construct: also called SARS病毒的N蛋白; SARS-CoV-NP

[2] = biological target: T2, MERS-CoV Nucleocapsid Protein(His Tag), 货号40068-V08B (MERS-CoV, UniProt K9N4V7 1-411); assay: ELISA, cross-reaction test
T2 construct: also called MERS病毒的N蛋白; MERS-CoV-NP

B1: 单克隆抗体Mouse anti-SARS-COV-2 Mab4(NP-Ab) (antibody, V domains shown)
VH: VKLQESGPELKKPGETVRISCKASGYTLTDYSIHWVKQAPGKGLKWMGWINTETVEPTYTDDFKGRFAFSLETSASTAYLQINNLKNEDTATYFCASTGTEFDYWGQGTTLTVSS
VL: DVVMTQTPLSLPVSLGDQASISCRSSQSLVHITGNTYLHWYLQKPGQSPKLLIYKVSNRFSGVPDRFSGSGSGTDFTLKISRVEAEDLGVYFCSQSTHVPLTFGAGTKLELK
notes: also called A1-1; A1-1号抗体
- binding result [1]: no binding
- binding result [2]: no binding
